Test in all cases: BLI
Experiment [1] deals with T1, GST-MPK6 (Arabidopsis thaliana, UniProt Q39026 1-395).
The target of experiment [2] is T1, GST-MPK6. This is another data set of the same source.
In another experiment the target is T2, GST-MPK3 (Arabidopsis thaliana, UniProt Q39023 1-370).
T2 sequence (looked up): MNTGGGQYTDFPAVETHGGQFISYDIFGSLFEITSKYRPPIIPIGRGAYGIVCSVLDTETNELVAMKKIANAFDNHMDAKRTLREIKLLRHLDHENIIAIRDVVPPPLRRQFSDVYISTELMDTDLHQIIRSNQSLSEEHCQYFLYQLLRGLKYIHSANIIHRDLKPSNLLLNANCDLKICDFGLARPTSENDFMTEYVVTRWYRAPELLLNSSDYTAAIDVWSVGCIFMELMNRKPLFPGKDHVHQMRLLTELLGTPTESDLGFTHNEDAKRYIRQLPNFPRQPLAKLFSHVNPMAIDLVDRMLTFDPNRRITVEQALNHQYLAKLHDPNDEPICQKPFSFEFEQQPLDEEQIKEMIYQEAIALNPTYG

Like-named read-outs stand apart in the source and are kept apart here. Ends that are not written are not given here.

T1 sequence (Q39026 whole entry): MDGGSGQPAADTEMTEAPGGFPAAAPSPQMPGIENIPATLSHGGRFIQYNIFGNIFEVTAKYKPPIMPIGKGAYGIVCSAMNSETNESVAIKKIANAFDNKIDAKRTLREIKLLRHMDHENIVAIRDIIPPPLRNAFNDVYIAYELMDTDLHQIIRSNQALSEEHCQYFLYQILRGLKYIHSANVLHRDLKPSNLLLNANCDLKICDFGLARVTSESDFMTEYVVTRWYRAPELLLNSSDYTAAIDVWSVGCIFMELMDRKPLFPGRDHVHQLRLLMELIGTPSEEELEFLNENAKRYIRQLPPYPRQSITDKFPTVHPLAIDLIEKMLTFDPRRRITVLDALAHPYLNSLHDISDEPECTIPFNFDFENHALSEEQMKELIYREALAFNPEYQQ

On to GGFVGNRAKVLKPLEVLASSGAQPTLFQKRAAMRQ (also: biotinylated, position not given here) [SCRM KiDoK full-length peptide, biotinylated], for which binding with GST-MPK6 [1] was characterised by a dissociation constant (Kd) of 47 ± 6 nM.
In turn, GGFVGNRAKVLKPLEVL (also: biotinylated, position not given here) [Docking motif peptide, biotinylated] returned a dissociation constant Kd in the experiment with GST-MPK6 [2] of 2300 ± 500 nM.
As to ASSGAQPTLFQKRAAMRQ (also: biotinylated, position not given here) [KRAAM motif peptide, biotinylated], the results for the dissociation constant (Kd) with GST-MPK3 and with GST-MPK6 [2] were 2800 ± 700 nM and 2400 ± 400 nM, respectively.

(Values after article PMC6668613 (Nature plants, 2019).)
